Measured values published in patent US20130004527A1.

molecular target: IgE in a panel of sera from 22 patients allergic to ragweed (human); test: competition ELISA; tested as AllerR mix with 22 sera

| Binder | highest concentration without competition |
| --- | --- |
| AllerR6 (peptide) peptide: VLGRHGEAAAESMKWNWRTNKDVLENGAIFVASGVDPVLTPEQSAGMIPAEPGESALSLTSSAGVLSCQPGA | > 10 µM |
| AllerR1 (peptide) peptide: TSGAYNIIDGCWRGKADWAENRKALADCAQGFGKGTVGGKDGDIYTVTSELDDDVANPK | > 10 µM |
| AllerR4.3 (peptide) peptide: MHDVKVNPGGLIKSNDGPAAPRAGSDGDAISISGSSQIWIDHCSLSKSVDGLVDAKLGTTR | > 10 µM |
| VDAKLGTTRLTVSNSLFTQHQFVLLFGAGDENIEDRGMLATVAFNTFTDN [AllerR4.2] | > 10 µM |
| AllerR5 (peptide) peptide: TVAFNTFTDNVDQRMPRCRHGFFQVVNNNYDKWGSYAIGGSASPTILSQGNRFCAPDERSKKNVLGRHGE | > 10 µM |
| TIDGRGAKVEIINAGFTLNGVKNVIIHNINMHDVKVNPGGLIK [AllerR3] | > 10 µM |
| AllerR2 (peptide) peptide: DVANPKEGTLRFGAAQNRPLWIIFERDMVIRLDKEMVVNSDKTIDGRGAKVE | > 10 µM |
